What is called EC50 is the concentration at which the effect is half-maximal. As a reminder, the koff is a measure of how fast the partners let go of each other. The term kon denotes the rate constant with which the complex forms. As a reminder, the EC50 (read off the curve) is the concentration that produces a half-maximal response.

From US20230139700A1 (BIO THERA SOLUTIONS, published 2023) come the findings set out here.

Test [1] deals with T1, human OX40 on cells (human, UniProt P43489 29-277).
T1 construct: whole, on cells; the cell is named under assay; also called hOX40; Jurkat-hOX40 cells
T1 sequence (looked up): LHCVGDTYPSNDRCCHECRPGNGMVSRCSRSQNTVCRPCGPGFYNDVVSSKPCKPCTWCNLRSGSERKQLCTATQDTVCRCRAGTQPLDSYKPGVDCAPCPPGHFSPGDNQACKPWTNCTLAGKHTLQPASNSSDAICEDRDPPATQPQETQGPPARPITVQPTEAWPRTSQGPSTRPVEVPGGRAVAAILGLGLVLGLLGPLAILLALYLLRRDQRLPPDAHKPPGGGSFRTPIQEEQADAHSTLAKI
The experiment in a line: flow cytometry (MFI) on Jurkat cells overexpressing OX40, antibody titration; the unit nM comes from the legend paragraph 95. An excerpt:
(§1) Table 10 illustrates the CDRs of eight full antibodies containing these amino acid mutations, and the rest of the sequences are the same as those of antibody-F23-32K. […] The sequences of the anti-OX40 antibody (antibody M) are shown in Table 12; wherein, the expression cells used for the antibodies above (including antibody M) are CHO-S cells, and the method for preparing the antibody M-KF is as follows: the antibody M was identical to the antibody M-KF in terms of amino acid sequence and was expressed by the CHO cell line in which the fut8 gene was knocked out (the content of fucose in antibody M-KF was about 0%).

A further test has as its target T2, hOX40-his (human, UniProt P43489 29-216).
T2 construct: range 1-216; Made in HEK293; The stated range starts at residue 1 (holds the signal peptide of the entry); no cleavage site stated; not shown: his tag
T2 sequence (looked up): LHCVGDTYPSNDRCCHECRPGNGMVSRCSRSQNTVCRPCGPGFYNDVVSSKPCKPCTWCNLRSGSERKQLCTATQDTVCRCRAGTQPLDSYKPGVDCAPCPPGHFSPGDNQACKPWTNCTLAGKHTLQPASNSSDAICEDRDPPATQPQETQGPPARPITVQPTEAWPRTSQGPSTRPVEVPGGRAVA
The experiment in a line: BIACORE, antibody on the probe, 20 nM OX40-his.
Source text: as §1

Test [2] deals with T1, human OX40 on cells. In words: cell-based or functional assay.
For test [3], the target named is T1, human OX40 on cells. The experiment in a line: flow cytometry (MFI) on Jurkat cells overexpressing OX40, antibody titration.
Source text: as §1
Background: Flow cytometry measures light scatter and fluorescence of single cells or particles in a stream.

Test [4] deals with T1, human OX40 on cells. In words: flow cytometry on Jurkat-hOX40 cells, 3-fold dilutions from 50 nM, MFI. As to the method: Antibody-F23-4k and antibody-F23-32k, as well as two control antibodies 11D4 and OX40mAb24 at different concentrations were used to incubate Jurkat-hOX40 cells.
The next test concerns the target T3, hOX40-FC (human, UniProt P43489 29-216).
T3 construct: range 1-216; Made in HEK293; The stated range 1-216 starts at residue 1, so it holds the signal peptide of the entry; also called human OX40 extracellular region fused to human IgG1-Fc; not shown: human IgG1-Fc, UniProt P01857, residues 104 to 330
T3 sequence (looked up): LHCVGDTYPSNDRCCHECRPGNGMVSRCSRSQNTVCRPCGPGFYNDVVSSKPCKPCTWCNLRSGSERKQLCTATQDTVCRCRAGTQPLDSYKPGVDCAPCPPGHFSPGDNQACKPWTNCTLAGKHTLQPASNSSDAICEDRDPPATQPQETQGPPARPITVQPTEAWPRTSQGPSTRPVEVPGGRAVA
In words: BLI (ForteBio), biotinylated antibody on SA sensor, OX40-Fc 50 nM bivalent, 1:1 model. The method, then: The ForteBio affinity assay was conducted according to the existing conventional method (Estep, P et al., MAbs, 2013, 5(2): 270-8). The brief process is as follows: the sensor was equilibrated offline in an assay buffer (such as PBS) for 20 min and then subjected to online test for 60 s to establish a signal baseline. The purified antibodies obtained as described above were each loaded online onto a corresponding sensor (ForteBio), and finally the ForteBio affinity assay was conducted. The biotinylated candidate antibodies were adsorbed with the SA sensor, and binding and dissociation of hOX40-FC were each detected for about 5 min. The results are shown in Table 4, and N.D indicates not detected in Table 4. Finally, kinetic analysis was performed for all by using a 1:1 binding model.
(In general: BLI is a label-free optical method that tracks binding on a fibre tip over time.)

Test [5] has as its target T1, human OX40 on cells. The experiment in a line: flow cytometry on Jurkat-hOX40 cells, 100 nM antibody, secondary antibody; parental Jurkat as control. The method, then: Jurkat cells overexpressing human OX40 (Jurkat-hOX40 cells) were generated by transfecting pCMV vectors with human OX40 cDNA. Jurkat-hOX40 cells (0.5×10⁶ cells) were incubated with 100 nM experimental antibody in PBS containing 0.1% BSA on ice for 40 min. The cells were then washed twice and incubated with the secondary antibody in PBS containing 0.1% BSA on ice for 25 min. The cells were washed twice and analyzed by flow cytometry on Accuri C6 system (BD Biosciences).

The target of a further test is T4, hCD27-FC (human, UniProt P26842 20-191, limits assumed).
T4 construct: not shown: Fc part
T4 sequence (looked up): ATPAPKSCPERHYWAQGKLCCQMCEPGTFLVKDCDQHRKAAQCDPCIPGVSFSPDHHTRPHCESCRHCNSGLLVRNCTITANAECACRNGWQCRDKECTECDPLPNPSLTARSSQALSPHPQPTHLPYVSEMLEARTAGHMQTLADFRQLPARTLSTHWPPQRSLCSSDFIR
In words: ELISA, 10 ng antigen coated, HRP secondary antibody. On the technique in general: In an ELISA, binding on a coated surface is turned into a signal by an enzyme label.

The next test has as its target T5, mouse OX40-his (mouse, UniProt P47741 20-211).
T5 construct: also called mOX40-his; not shown: his tag
T5 sequence (looked up): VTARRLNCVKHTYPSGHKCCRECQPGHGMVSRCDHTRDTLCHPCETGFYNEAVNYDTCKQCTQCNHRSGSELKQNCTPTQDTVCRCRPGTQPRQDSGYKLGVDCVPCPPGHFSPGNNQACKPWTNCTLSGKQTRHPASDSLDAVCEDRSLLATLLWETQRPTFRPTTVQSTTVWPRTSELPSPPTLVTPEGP
Described as above.

In a further test the target is T6, rhesus monkey OX40-his (rhesus monkey).
T6 construct: also called Rh-OX40; Rh-OX40-his
In words: BLI (Fortebio), protein A sensor - antibody - OX40-his (100 nM).

B1: Antibody M (antibody, human IgG1, kappa, V domains shown)
VH: QVQLVESGGGVVQPGESLRLSCAASGFTFSSYGMHWVRQAPGKGLEWVAVIWEDGSNQYYADSVKGRFTISRDNSKNTLYLQMNSLRAEDTAVYYCAKDNQDTSPDVGIDYWGQGTLVTVSS
VL: DIQMTQSPSSLSASVGDRVTITCRASQNISPFLNWYQQKPGKAPKLLIYAAVGLQSGVPSRFSGSGSGTDFTLTISSLQPEDFATYYCQQYTDYPLTFGGGTKVEIKR
notes: also called antibody No. 12; anti-OX40 antibody (antibody M)
Turning to B1, in the test with human OX40 on cells [1], the EC50 turned out to be 1.2 nM. In addition, in the test with hOX40-his, the Kd was 0.16 nM, the “fold higher affinity than 11D4” value is about 9 fold, the “fold higher affinity than OX40mAb24” value was about 21 fold and the “fold increase of affinity (against antibody-F23-32K)” value is about 70 fold. Moreover, in the test with hOX40-his, the koff came to 9.77e-05 s⁻¹ and the kon amounted to 610000 M⁻¹ s⁻¹. Moreover, the “NFκB reporter in Jurkat-hOX40-NFκB-2 cells with Raji cells, activation peak against 11D4” value with human OX40 on cells [2] is about 2.5 fold. Further, in the test with human OX40 on cells [3], the “EC50 (read off the curve)” value is about 1 nM.

B2: Antibody-F23-4k (antibody, human IgG1, kappa, V domains shown)
VH: QVQLEESGGGVVQPGESLRLSCAASGFTFSSYGMHWVRQAPGKGLEWVAVISYDGSNQYYADSVKGRFTISRDNSKNTLYLQMNSLRAEDTAVYYCAKDNQDSSPDVGIDYWGQGTLVTVSS
VL: DIVMTQSPSSLSASVGDRVTITCRASQDILGYVNWYQQKPGKAPILLIYATSGLQGGVPSRFSGSGSGTDFTLTISSLQPEDFATYYCQQYNSYPLTFGGGTKVDIKR
notes: also called antibody No. 4
With B2, the response with human OX40 on cells [4] was half-maximal at 1.5 nM (EC50). In the test with hOX40-FC, this molecule gave a Kd of 0.6 nM.

B3: Antibody-A6-1k (antibody, human IgG1, kappa, V domains shown)
VH: QVQLQRSGGGLVQPGGSLRLSCAASGFTFSSYGMTWVRQAPGKGLEWVSAISNSGGSTYYADSVKGRFTISRDNSKNTLYLQMNSLRAEDTAVYYCAKDGPYFDYWGQGTLVTVSS
VL: DIQMTQSPSTLSASVGDRVTITCRVSQGIGDDLGWYQQKPGKAPKLLIYKASNLESGVPSRFSGSGSGTDFSLTISSLQPEDFATYFCQQAHSFPPTFGGGTKLEIKR
notes: also called Antibody-A6-lk; antibody No. 7
Turning to B3, the Kd with hOX40-FC worked out at 4 nM.

B4: 11D4 (antibody, V domains shown)
VH: EVQLVESGGGLVQPGGSLRLSCAASGFTFSSYSMNWVRQAPGKGLEWVSYISSSSSTIDYADSVKGRFTISRDNAKNSLYLQMNSLRDEDTAVYYCARESGWYLFDYWGQGTLVTVSS
VL: DIQMTQSPSSLSASVGDRVTITCRASQGISSWLAWYQQKPEKAPKSLIYAASSLQSGVPSRFSGSGSGTDFTLTISSLQPEDFATYYCQQYNSYPPTFGGGTKVEIKR
B4 came in with an EC50 with human OX40 on cells [1] of 1.17 nM. In addition, in the test with hOX40-his, the Kd worked out at 1.31 nM, the koff is 0.000461 s⁻¹ and the on-rate constant (kon) was found to be 353000 M⁻¹ s⁻¹. This molecule also gave an EC50 with human OX40 on cells [4] of 1.5 nM. The “EC50 (read off the curve)” value in the test with human OX40 on cells [3] is about 1 nM.

B5: Antibody-M5-5k (antibody, human IgG1, kappa, V domains shown)
VH: QVQLVESGGGLIQPGGSLRLSCTASGFTFSTYAMSWVRQAPGKGLEWVSAISGTGDWASYADSVKGRFTTSRDNSRNTLYLQMNNLRDEDTAIYYCAKSSSTVATDFDYGMDVWGQGTLVTVSS
VL: ETTLTQSPSTLSASVGDRVTITCRASEEIGSWLAWYQQTPGKAPKRLIYEASSLQSGVPSRFSGSGSGTDFTLTISSLQPEDFATYYCQQYGSYPPTFGQGTKVEIKR
notes: also called antibody No. 8
Turning to B5, the Kd with hOX40-FC was found to be 2 nM.

B6: Antibody-M5-7k (antibody, human IgG1, kappa, V domains shown)
VH: QVQLVESGGGLIQPGGSLRLSCTASGFTFSTYAMSWVRQAPGKGLEWVSAISGTGDWASYADSVKGRFTTSRDNSRNTLYLQMNNLRDEDTAIYYCAKSSSTVATDFDYGMDVWGQGTLVTVSS
VL: DIVMTQSPSTLSASVGDRVTVTCRASEDIGRWLAWYQQKPGKAPKRLIYAASSLQSGVPSRFSGSGSGTEFTLTISSLQPEDFATYYCQQYYNYPPTFGQGTKVEIKR
notes: also called antibody No. 9
Take B6: in the test with hOX40-FC, the Kd was determined as 0.4 nM.

B7: Antibody-F10 (antibody, human IgG1, kappa, V domains shown)
VH: QVQLQESGGGLEKPGRSLRLSCAASGFTFSSYAMHWVRQAPGKGLEWVAVISYDGSNKYYADSVKGRFTISRDNSKNTLYLQMNSLRAEDTAVYYCARELGVYSGYDTPFDYWGQGTLVTVSS
VL: DIQMTQSPSSLSASVGDRITITCRASRDIRDDLAWYQQKPGGAPKLLIYAASTLQSGVPSRFSGSGSGTDFTLTISSLQPEDFATYYCLQDSDYPLTFGGGTKLEIKR
notes: also called antibody No. 1
With B7, the binding result with human OX40 on cells [5] was “binds”.

B8: OX40mAb24 (antibody, V domains shown)
VH: QVQLQESGPGLVKPSQTLSLTCAVYGGSFSSGYWNWIRKHPGKGLEYIGYISYNGITYHNPSLKSRITINRDTSKNQYSLQLNSVTPEDTAVYYCARYKYDYDGGHAMDYWGQGTLVTVSS
VL: DIQMTQSPSSLSASVGDRVTITCRASQDISNYLNWYQQKPGKAPKLLIYYTSKLHSGVPSRFSGSGSGTDYTLTISSLQPEDFATYYCQQGSALPWTFGQGTKVEIKR
In the case of B8, the “ELISA (OD value)” value in the test with hCD27-FC worked out at 0.2 OD; with mouse OX40-his it was 0.17 OD. Besides, in the test with human OX40 on cells [4], the midpoint of the response, the EC50, lay at 5 nM. In the test with rhesus monkey OX40-his, this molecule displayed a Kd of 3 nM.

B9: Antibody-F15-1L (antibody, human IgG1, kappa, V domains shown)
VH: QVQLRESGGGLVQPGGSLRLSCAASGFTFSSYAMNWVRQAPGKGLEWVSAISGSGGNTYYADSVKGRLTISRDNSKNTLYLQMNSLRAEDTAVYYCAKDPLGSSWFEYFQHWGQGTLVTVSS
VL: QSALTQPASVSGSPGQSITISCTGTSSDVGGYNYVSWYQKHPGKAPKLMIYEVSNRPSGVSNRFSGSKSANTASLTISGLQAEDEADYFCSSYSSSSTLVVFGGGTKLTVLR
notes: also called Antibody-F15-IL; antibody No. 3
Consider B9, for which, in the test with hOX40-FC, the Kd amounted to 3 nM.
